{"source": "IntAct's records for PubMed 22151054", "parents": {"B1": {"name": "Myeloid leukemia factor 1 (Homo sapiens), P58340 (parent)", "chain": "MFRMLNSSFEDDPFFSESILAHRENMRQMIRSFSEPFGRDLLSISDGRGRAHNRRGHNDGEDSLTHTDVSSFQTMDQMVSNMRNYMQKLERNFGQLSVDPNGHSFCSSSVMTYSKIGDEPPKVFQASTQTRRAPGGIKETRKAMRDSDSGLEKMAIGHHIHDRAHVIKKSKNKKTGDEEVNQEFINMNESDAHAFDEEWQSEVLKYKPGRHNLGNTRMRSVGHENPGSRELKRREKPQQSPAIEHGRRSNVLGDKLHIKGSSVKSNKK"}}, "data": [{"variants_of": "B1", "conditions": "with 1433e_human YWHAE", "values": [{"variant": "MFRMLNSSFEDDPFFSESILAHRENMRQMIRSASEPFGRDLLSISDGRGRAHNRRGHNDGEDSLTHTDVSSFQTMDQMVSNMRNYMQKLERNFGQLSVDPNGHSFCSSSVMTYSKIGDEPPKVFQASTQTRRAPGGIKETRKAMRDSDSGLEKMAIGHHIHDRAHVIKKSKNKKTGDEEVNQEFINMNESDAHAFDEEWQSEVLKYKPGRHNLGNTRMRSVGHENPGSRELKRREKPQQSPAIEHGRRSNVLGDKLHIKGSSVKSNKK", "note": "[F33A]", "effect of a mutation on the interaction": "decreasing interaction"}]}]}
